Experimental data: the supplement of paper PMC10126150
± gives the standard deviation of the averaged measurements.

System: ATP
Assay: switch fluorescence ratio, 500 uM ATP over buffer (Cy3 cluster intensity, sum of 5 cycles each) (fold (ratio)); higher = stronger signal-on switching upon ATP binding; sequences stand for … in TCGTCGGCAGCGTCAGATGTGTATAAGAGACAGTTTTTTTTTTTTTTTTTTTTTTTTT…TC
Conditions: aptamer strand: ATP DNA aptamer (quencher-CACCTGGGGGAGTATTGCGGAGGAAGG + anchor), 100 nM annealed; ATP concentration: 500 uM
Method in brief: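 After annealing to 100 nM quencher-labelled ATP aptamer, Cy3-labelled switching-strand clusters on a modified Illumina MiSeq flow-cell were imaged in selection buffer. A second image followed after 15 min with 500 uM ATP at 22 °C, and five such buffer/ATP cycles were done, each separated by NaOH stripping and re-annealing. The fluorescence ratio, averaged per switch-domain sequence, is summed target-cycle over summed buffer-cycle Cy3 intensity per cluster, with clusters outside 100-1000 RFU excluded.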
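Note: ATP exposure 15 min at 22 °C before imaging.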

Sequence | switch fluorescence ratio
CGATATAGTC | 0.993 ± 0.049
GAAAGTGTTG | 0.9722 ± 0.0058
GTGTTAATGA | 0.967 ± 0.019
GGTATGGCGC | 0.986 ± 0.058
CGGGGTTCGT | 0.983 ± 0.028
CGAGTGCCCA | 0.996 ± 0.033
AATTAAGGGG | 0.997 ± 0.029
TTGGATGTAA | 1 ± 0.036
CGCCGATTAA | 1.03 ± 0.062
AGACAAAAAT | 1.026 ± 0.0065
TAGTAATTTG | 1.01 ± 0.019
ACTATGGTTA | 0.997 ± 0.055
TTTGAATATA | 0.985 ± 0.022
AAGATTCGCG | 0.9914 ± 0.0014
GGGAGTGGCC | 1.01 ± 0.032
GGGCATAAAG | 1.02 ± 0.025
TTGGATGGTT | 1.01 ± 0.03
GCCATTGAGG | 0.9668 ± 0.0031
GCAGAATATT | 0.998 ± 0.029
GGGGTATATG | 0.995 ± 0.027
CGTATATGGC | 1.1 ± 0.14
TATTACACAT | 1.01 ± 0.04
GGGGGAGGTT | 0.977 ± 0.029
CGATAACATG | 0.9984 ± 0.0051
GGGGCGCGCC | 1.022 ± 0.0077

Sequence | switch fluorescence ratio
ATCAGGGGGG | 1.02 ± 0.037
TTCGAGCATT | 1.39 ± 0.17
GGGTCAATGG | 1.04 ± 0.031
GTAGGGGATC | 1.04 ± 0.058
GGCTGTGTTA | 0.9958 ± 0.0024
CGCATTTTGT | 1.06 ± 0.0043
TGTTTTTATA | 1.005 ± 0.0091
ATTTGCCCGA | 1 ± 0.012
AGCATGTCTG | 0.986 ± 0.01
GGGACATGGG | 0.972 ± 0.041
TTGTAGTCTC | 1.03 ± 0.11
TATTGGTTGT | 0.999 ± 0.029
TATTGCTTCT | 0.9913 ± 0.0021
AAACGGGGAC | 1.07 ± 0.15
GCCGAGCCGG | 0.972 ± 0.011
CGTATTTGGG | 0.999 ± 0.034
GTCTTGGGTA | 0.963 ± 0.024
ACATGATTCG | 0.99 ± 0.03
TCGGAGGGAA | 1.03 ± 0.027
TTGACGAGTT | 1.06 ± 0.081
TGGGACAAGC | 0.979 ± 0.032
TTTATTGTGC | 1.03 ± 0.054
CGGTTTGTGT | 0.998 ± 0.029
ATTTAATTAC | 1.02 ± 0.0013
TATACGGGGA | 1.01 ± 0.021

Sequence | switch fluorescence ratio
TATGAGAGCC | 1.02 ± 0.026
TGAGGCATGT | 1.05 ± 0.036
GCGGAGAGAG | 0.998 ± 0.019
GAGTTGCTTA | 1.006 ± 0.01
TGTGTGAGAA | 0.997 ± 0.022
GGTTGTTTCT | 0.997 ± 0.0057
GTGGTCAGGG | 0.9855 ± 0.0092
ACGTGCAGTT | 1.02 ± 0.012
CGTGAGAGTG | 0.9781 ± 0.0021
AATATTTATT | 1.02 ± 0.0091
AGACTTGTTA | 0.971 ± 0.021
TCCTGAGGCG | 1.02 ± 0.022
CACGCGGTGG | 1.02 ± 0.13
CTGGGGGTGT | 1.05 ± 0.04
AAATGGCACG | 0.973 ± 0.024
ATCTTGTTGG | 1.13 ± 0.27
ACGGGTACGC | 1.01 ± 0.021
GGGTTTAATA | 0.996 ± 0.034
GGGGGCACGA | 1.07 ± 0.021
CACATACATT | 1.24 ± 0.067
ATGAATTTGG | 0.973 ± 0.025
AGATAGAGTA | 1.006 ± 0.0033
TCCAAGGGGT | 1.06 ± 0.044
ATAGCTTCAC | 1.15 ± 0.015
GTTATCATTT | 0.989 ± 0.011

Sequence | switch fluorescence ratio
GGGGTTCTTA | 1.02 ± 0.091
TAGAGGTGTG | 0.99 ± 0.019
AAAGAGGGTA | 0.963 ± 0.055
TTTGGTCGGT | 0.986 ± 0.081
CCGGGGGCGG | 1.01 ± 0.015
ACGGAGGGGG | 0.96 ± 0.042
TTTTTGTACT | 1.11 ± 0.083
ATTTTTCTGC | 1.03 ± 0.039
GGAAAGTCAG | 0.992 ± 0.027
GCGTTTGGGG | 1.01 ± 0.043
TTTAGGTCAA | 0.9943 ± 0.0031
GGTTAAGAAA | 1.021 ± 0.0081
CGAGCGACGT | 0.9863 ± 0.007
TTCCTCTCGG | 1.17 ± 0.18
AGGAAATTGT | 1.01 ± 0.059
TTGGGGGGG | 1.02 ± 0.035
ACTTAGGGGA | 1.02 ± 0.036
TGCAGTTTTT | 0.999 ± 0.029
AGGTTGAGGA | 0.964 ± 0.033
CGGTAGGACA | 1 ± 0.011
CTATGGCGCA | 1.03 ± 0.067
TGTTATAATT | 1 ± 0.0048
GATAGTGAGT | 0.988 ± 0.016
GGTTTCGTTG | 1 ± 0.046
TTGACTGTTC | 1.04 ± 0.043

Sequence | switch fluorescence ratio
AGGTAATAGC | 1.05 ± 0.0078
TATCGGGTGG | 1.01 ± 0.097
ATCCTGGGTG | 3.73 ± 1.5
TTTAGGTTGT | 0.9984 ± 0.0073
TCCTAACTTG | 1.01 ± 0.014
AAAGTACGGT | 1.21 ± 0.024
TCTTTCATAT | 0.9392 ± 0.0062
GAGAGAGGGA | 1.01 ± 0.034
AAGTCACGGT | 1.09 ± 0.02
GGCTTAAGCA | 0.988 ± 0.025
AATGTGTGAA | 1.01 ± 0.017
TTGGATGAGG | 0.973 ± 0.048
TATGGCCTGG | 1.04 ± 0.015
TCCTGTTACA | 1.03 ± 0.017
TCGTTGGTGG | 0.984 ± 0.06
AGGCGGTATC | 1.047 ± 0.0025
ATTTGATTCA | 0.997 ± 0.012
ATCGGTGGGG | 0.963 ± 0.019
AAATGTTTTC | 0.979 ± 0.015
TTTAGTGCCT | 1.04 ± 0.012
CGGGGGGCCA | 1.016 ± 0.0048
TTGTGGTCGC | 0.97 ± 0.024
CCTGGCCAGC | 0.978 ± 0.015
ACAAAACTC | 1.27 ± 0.37
AATTGGCGTA | 1.01 ± 0.034

Sequence | switch fluorescence ratio
CGGTGTTAAC | 0.957 ± 0.036
AGAGGTTAAG | 1.03 ± 0.08
CAGTTATCGT | 0.986 ± 0.016
TTTGAGGATA | 1.07 ± 0.021
GGGGAGGGTA | 1.03 ± 0.015
GCTTCAGAGT | 1 ± 0.02
GTTAGGGGAA | 1.02 ± 0.031
GTGTCATTTA | 0.99 ± 0.035
GACGTTTTGT | 0.96221 ± 0.00058
ATTTGGTTAG | 0.987 ± 0.025
TATCGGGGTG | 0.996 ± 0.053
AAATTTTAAT | 0.979 ± 0.04
TGATATAGCA | 1.03 ± 0.013
CGATTTGACT | 1.02 ± 0.037
AGATGGGGGT | 1.016 ± 0.0053
TATAGCCTAG | 0.99 ± 0.027
TAGGGGATAT | 0.964 ± 0.025
TTTTAGTGCT | 1.006 ± 0.0065
GAATATTTTT | 1.02 ± 0.034
TTGCATGCCG | 0.972 ± 0.036
ATTTTTGAGA | 0.986 ± 0.017
TACCCAAAAT | 1.1 ± 0.15
GTGTCATAGC | 0.975 ± 0.012
ATCGTTATCA | 0.991 ± 0.056
GCACACAAAA | 1.05 ± 0.012

Sequence | switch fluorescence ratio
TTTTTGGGAG | 1.01 ± 0.024
TCGTGAGTTT | 0.996 ± 0.035
TTGACGCTAA | 2.37 ± 0.65
GCGTAAAATT | 0.9737 ± 0.0057
GCCTTAGCCG | 0.972 ± 0.019
CGATAGGCAA | 1.66 ± 0.9
GCGAACGGAG | 0.998 ± 0.011
GAATTAATCG | 0.988 ± 0.039
TAAAGGAAGG | 0.9801 ± 0.0066
GTATAATTCA | 0.975 ± 0.028
GAGTTCAGGT | 1.01 ± 0.019
TTTTGGAATT | 1.04 ± 0.16
AGGGTAAATT | 1.03 ± 0.053
CGAGGTTAGG | 1.06 ± 0.062
GGGTATCGTA | 1.01 ± 0.018
AAAAGAACGC | 1.05 ± 0.097
TCTAAAGGGA | 1.03 ± 0.024
TTGTGGGCGA | 0.9947 ± 0.0014
GTATTAGAAG | 0.975 ± 0.047
TCAGAGGCGT | 0.9964 ± 0.0056
TCTAAAGGGT | 0.9988 ± 0.0021
TGCCAGTTCG | 1.02 ± 0.025
GGTGGGAGCT | 1.01 ± 0.075
GGGCTATAGA | 0.9984 ± 0.0095
GAGGGGAGTA | 1 ± 0.033

Sequence | switch fluorescence ratio
TAAGTAGAG | 0.9824 ± 0.0097
AAGGGCCCTA | 0.9939 ± 0.0018
TTGGCCGATG | 1.001 ± 0.0098
AGTTTCGGGA | 1 ± 0.033
TCGTTATTTG | 1.004 ± 0.0078
CCACGTGAGG | 1.03 ± 0.012
ATTATGTGTC | 0.959 ± 0.048
AGGAATAAAC | 1.02 ± 0.013
ATATCGTGCA | 0.9972 ± 0.006
CTGTATAAGT | 0.985 ± 0.015
TTTTTGCTGA | 1.01 ± 0.032
ATCAGGAAAA | 1.02 ± 0.071
GGTGAAAGGA | 0.979 ± 0.058
ACTGGGCGGA | 0.996 ± 0.015
CTTCGGAGTG | 1.02 ± 0.023
TGTCGTTTAC | 1.05 ± 0.021
AAATGAAGGT | 1.01 ± 0.013
GGGTTTGCCT | 1.0216 ± 0.0002
GGGGGAAAG | 1 ± 0.025
ACGCACGATT | 1.37 ± 0.1
TATTTTTATC | 1.03 ± 0.018
ACTCATGTAA | 1.03 ± 0.015
GGGGGGGTGG | 1 ± 0.033
GGGGGGGAAA | 0.99 ± 0.035
TGTTTGTTGT | 1.03 ± 0.063
